From US20260193324A1

Target: human GLP-1 receptor (GLP-1R) (human) (UniProt P43220)
UniProt P43220, sequence (P43220 24-463): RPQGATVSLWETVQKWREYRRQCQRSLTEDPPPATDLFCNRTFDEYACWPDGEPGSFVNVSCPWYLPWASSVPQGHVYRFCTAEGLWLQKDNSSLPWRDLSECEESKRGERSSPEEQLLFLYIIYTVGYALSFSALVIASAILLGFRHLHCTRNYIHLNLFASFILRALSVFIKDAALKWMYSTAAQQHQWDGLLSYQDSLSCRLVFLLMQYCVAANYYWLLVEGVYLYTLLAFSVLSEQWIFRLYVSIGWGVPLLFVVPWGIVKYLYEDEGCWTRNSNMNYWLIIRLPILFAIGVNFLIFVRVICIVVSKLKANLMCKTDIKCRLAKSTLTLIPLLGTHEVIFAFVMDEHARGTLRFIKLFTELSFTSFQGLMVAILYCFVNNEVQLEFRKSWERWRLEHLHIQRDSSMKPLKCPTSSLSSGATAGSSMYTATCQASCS

With “GLP-1(7-37) peptide (from UniProt P01275 21-180)” the EC50 (read off the curve), 4 hr stimulation was 1 nM.
